According to paper PMC3278721 (Molecular Cell, 2012):
One block for each binder: values may come before it.

Columns and labels:
[1] = target: T1, Maltose Binding Protein fused to ROS1 full-length (MBP-ROS1) (Arabidopsis, UniProt Q9SJQ6 1-1393); assay: pull-down
T1 sequence (looked up): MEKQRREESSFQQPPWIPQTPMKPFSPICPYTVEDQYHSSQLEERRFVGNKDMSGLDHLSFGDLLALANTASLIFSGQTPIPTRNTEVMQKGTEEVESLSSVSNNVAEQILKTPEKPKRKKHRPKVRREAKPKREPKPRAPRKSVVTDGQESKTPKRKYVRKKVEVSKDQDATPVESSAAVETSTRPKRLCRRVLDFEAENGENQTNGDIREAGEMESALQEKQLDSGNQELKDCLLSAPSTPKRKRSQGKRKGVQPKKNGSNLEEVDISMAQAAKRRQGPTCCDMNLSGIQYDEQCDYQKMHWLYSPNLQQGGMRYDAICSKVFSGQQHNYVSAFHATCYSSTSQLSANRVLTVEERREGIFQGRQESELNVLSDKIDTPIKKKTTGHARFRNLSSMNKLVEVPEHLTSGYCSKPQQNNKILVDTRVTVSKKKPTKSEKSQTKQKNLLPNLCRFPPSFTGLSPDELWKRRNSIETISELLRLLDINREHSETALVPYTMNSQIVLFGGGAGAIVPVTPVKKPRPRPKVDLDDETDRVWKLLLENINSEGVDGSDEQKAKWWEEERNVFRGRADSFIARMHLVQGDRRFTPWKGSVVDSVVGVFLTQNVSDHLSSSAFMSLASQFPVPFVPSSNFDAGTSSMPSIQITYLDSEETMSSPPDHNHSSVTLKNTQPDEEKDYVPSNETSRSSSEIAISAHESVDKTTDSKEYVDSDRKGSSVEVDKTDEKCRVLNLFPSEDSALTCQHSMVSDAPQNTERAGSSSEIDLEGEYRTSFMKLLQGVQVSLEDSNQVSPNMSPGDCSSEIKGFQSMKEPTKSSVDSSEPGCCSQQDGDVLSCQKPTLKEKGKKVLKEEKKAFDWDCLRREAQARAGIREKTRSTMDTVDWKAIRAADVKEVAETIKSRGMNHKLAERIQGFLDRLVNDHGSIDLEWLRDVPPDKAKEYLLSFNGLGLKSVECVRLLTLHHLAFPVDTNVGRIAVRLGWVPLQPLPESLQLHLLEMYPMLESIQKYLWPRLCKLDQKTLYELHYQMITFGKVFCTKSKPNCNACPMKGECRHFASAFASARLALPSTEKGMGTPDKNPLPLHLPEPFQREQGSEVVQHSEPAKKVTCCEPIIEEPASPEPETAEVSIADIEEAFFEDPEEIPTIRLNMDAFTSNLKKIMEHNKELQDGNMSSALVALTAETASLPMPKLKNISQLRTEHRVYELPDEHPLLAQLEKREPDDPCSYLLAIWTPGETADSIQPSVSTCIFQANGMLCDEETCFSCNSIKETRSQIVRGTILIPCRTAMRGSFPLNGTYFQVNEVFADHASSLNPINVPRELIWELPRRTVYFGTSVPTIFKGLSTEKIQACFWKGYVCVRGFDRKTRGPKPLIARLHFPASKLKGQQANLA

[2] = target: T2, Purified full-length ROS1 fused to His6-tag (FL-ROS1) (Arabidopsis, UniProt Q9SJQ6 1-1393); assay: pull-down
T2 sequence (looked up): T1 sequence (looked up)

binding result [1]: binds
B1: His-tagged ZDP (Arabidopsis thaliana zinc finger DNA 3'-phosphoesterase) (enzyme, UniProt Q84JE8 1-694, looked up)
chain: MITVAPFVSLRFQFPLYIINRSTLFFRERTQYLVYNTCHILRTTAKTMPVVAEYAKSNRSSCRSCSNKIAVKSLRLGLISKGRGGVDMTRWHHFDCFPTDSESIASVDDIQGLSALEKEDQDALTKLVEQCGKVPAKKPDEKKGKAKKHIMGPKGLTKAATSSKVIADNAKSSRSSCNRCSQTIVSKDLRVGLVTEDSRGFDITRWHHLGCFPIDFHPIDSVEDIGGYSSLEKGDQMELKYLAEVNKKDKTLIDDVQKMDEGDDEAIADNELTEETKKGKHSPVAKLVEQPGEPAKEDEDEESKKPASDEISEQKTKDVKNSPDSSKVISEYAKSSRSTCKKCSQTIAAKELRLGLVTRNFRGFDMKQWHHLGCFPVDSDPIVSVEDIGGFSELQSGDQDALKELVQQCGKQTLVDKMDEDNDDTEAKIKLTEETNKRKHSEVGEMVEEDESLTKAKQQMAKTHKVNMSESTSQVEVEAEITLSASDVKDKYRDANLLPKWKAFETVIFLERDDGLNDSEKIAAFDFDGCLAKTSVKIVGADAWSLMYPSIPEKLQSLHDQGYKLVIFTNESNIDRWKNKRQAAVDSKIGRLNSFIERVKVPIQVFIACGVSSSGGKGGKDDLYRKPKAGMWQLMKKHFNSGIAIDMDKSFYVGDAAGRKMDHSDADIKFAQASGLKFFTPEEYFIPSSTSPGT

binding result [2]: binds
B2: MBP-ZDP (enzyme, Arabidopsis thaliana, UniProt Q84JE8 1-694, looked up)
chain: B1 chain
